Measurements from US20220276241A1 (TRUSTEES OF INDIANA UNIVERSITY, published 2022).

Molecular target: T1, PhnD E177NΔ (E. coli, UniProt P16682 27-329, acrylodan on Cys 126)
T1 chain: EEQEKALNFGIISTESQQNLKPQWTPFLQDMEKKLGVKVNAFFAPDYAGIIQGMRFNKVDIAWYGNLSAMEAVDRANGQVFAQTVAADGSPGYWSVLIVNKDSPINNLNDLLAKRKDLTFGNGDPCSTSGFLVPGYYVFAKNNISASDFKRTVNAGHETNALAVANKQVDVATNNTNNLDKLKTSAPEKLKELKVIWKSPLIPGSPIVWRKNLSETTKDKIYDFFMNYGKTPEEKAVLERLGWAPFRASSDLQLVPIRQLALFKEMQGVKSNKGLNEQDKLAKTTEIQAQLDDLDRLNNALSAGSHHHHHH
Test: cell-based or functional assay

B1: Fab N2 (Fab, V domains shown)
VH: EVQLVESGGGLVQPGGSLRLSCAASGFNFSSSIHWVRQAPGKGLEWVASISSSSGSTSYADSVKGRFTISADTSKNTAYLQMNSLRAEDTAVYYCARQWSSVMEWYIGLDYWGQGTLVTVSS
VL: DIQMTQSPSSLSASVGDRVTITCRASQSVSSAVAWYQQKPGKAPKLLIYSASSLYSGVPSRFSGSRSGTDFTLTISSLQPEDFATYYCQQSSSSLITFGQGTKVEIKR
- Kd of the PhnD mutant for glyphosate in the presence of Fab N2 (fluorescence titration): 0.45 µM
- fold improvement of the Kd for glyphosate on adding Fab N2, compared to the mutant in the absence of Fab N2: ~18 fold
